According to US8394929B2, “Nogo receptor-mediated blockade of axonal growth” (Yale University, priority 2000, dated 2013):

Tests used:
[1] = test system: GST-Nogo-induced growth cone collapse; assay: Blockade of Nogo-induced growth cone collapse in chick DRG cultures; type: cell-based; conditions: GST-Nogo / Nogo-66 as collapsing agent
Method: (§1) For all experiments involving cell culture, the following methods were employed. The culture of embryonic chick E10 and E12 dorsal root ganglion explants and dissociated neurons utilized methods described for E7 dorsal root ganglion cultures (Takahashi et al., (1998) Nature Neurosci. 1, 487-493; Takahashi et al., (1999) Cell 99, 59-69; Goshima et al., (1995) Nature 376, 509-514; Jin & Strittmatter, (1997) J. Neurosci. […]). NGF-differentiated PC12 cells were cultured as described (Strittmatter et al., (1994) J. Neurosci. 14, 2327-2338). Embryonic spinal cord explants (rat E10 or chick E5) were cultured for 7-14 days in the presence of PDGF-AA to induce differentiation of some cells into mature oligodendrocytes (Vartanian et al., (1999) Proc. Natl. Acad. Sci. USA 96, 731-735). The procedure for growth cone collapse assays is identical to that for analysis of Sema3A-induced growth cone collapse (Takahashi et al., (1998) Nature Neurosci. 1, 487-493; Takahashi et al., (1999) Cell 99, 59-69; Goshima et al., (1995) Nature 376, 509-514; Jin & Strittmatter, (1997) J. Neurosci. 17, 6256-6263). The method for analysis of total neurite outgrowth has also been described (Goshima et al., (1995) Nature 376, 509-514; Jin & Strittmatter, (1997) J. Neurosci. 17, 6256-6263; Strittmatter et al., (1994) J. Neurosci. 14, 2327-2338). In outgrowth assays, proteins and peptides were added one hour after plating to minimize any effect on the total number of adherent cells. To test the effect of substrate-bound GST or GST-Nogo, the protein solutions were dried on poly-L-lysine coated glass, washed and then coated with laminin. For E12 cultures, the neuronal identity of cells was verified by staining with anti-neurofilament antibodies (2H3, Develomental Studies Hybridoma Bank) and neurites were traced by observation of rhodamine-phalloidin staining of F-actin in processes.
In the growth cone collapse assay, the response to Nogo was measured in the presence of various potential antagonistic peptides. […] This blockade supports the hypothesis that Nogo is a primary inhibitory component of CNS myelin.
For further testing, a synthetic peptide containing amino acid residues #1055-1094 of hNgR, acetylated at the […] was used [hereinafter “Peptide 140”]. […] Antagonist of Nogo-66 inhibitory activity may act by competing for, and thereby blocking NgR binding sites. To determine the antagonistic activity of Peptide 140, the above synthetic form of the peptide was added to E12 chick DRG explant cultures approximately 10 min before application of various concentrations of GST-NogoA (residues #1055-1120), TPA or Sema3A. 30 min later, cultures were fixed and growth cone collapse was assessed following staining with rhodamine-phalloidin.

mouse NgR = molecular target: T1, mouse NgR (Mus musculus, UniProt Q99PI8); assay: AP-fusion protein binding to COS-7 cells expressing mouse NgR
T1 construct: expressed in transfected cells; host or cells: COS-7
T1 sequence (Q99PI8 27-473): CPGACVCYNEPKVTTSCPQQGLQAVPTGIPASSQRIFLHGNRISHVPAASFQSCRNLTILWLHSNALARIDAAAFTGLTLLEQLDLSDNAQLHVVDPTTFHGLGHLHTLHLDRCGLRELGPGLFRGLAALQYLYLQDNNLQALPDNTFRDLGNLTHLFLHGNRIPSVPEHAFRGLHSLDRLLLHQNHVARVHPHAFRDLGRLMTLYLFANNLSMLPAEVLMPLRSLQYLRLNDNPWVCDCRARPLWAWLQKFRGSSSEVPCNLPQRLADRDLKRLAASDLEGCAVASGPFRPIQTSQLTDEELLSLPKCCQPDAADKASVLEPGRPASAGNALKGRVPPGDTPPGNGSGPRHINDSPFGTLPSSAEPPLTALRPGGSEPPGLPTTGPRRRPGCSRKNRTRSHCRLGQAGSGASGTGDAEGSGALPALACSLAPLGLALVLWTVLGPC
Method: To determine if AP-fused deletion mutants of Nogo-66 bind mouse NgR (“mNgR”), COS-7 cells were transfected with a plasmid encoding the mouse NgR sequence ligated into pcDNA3.1. 48 hours after transfection, cells were washed with HBH (Hanks balanced salt solution containing 20 mM sodium Hepes, pH 7.05, and 1 mg ml^−1 bovine serum albumin) and then incubated with condition medium containing one of the AP-fusion proteins described above for 2 hours at 37° C. Cells were then washed, fixed, and left in HBH at 67° C. for 14-16 h to inactivate endogenous AP. AP-fusion protein binding to NgR expressing COS-7 cells was detected with the substrates NBT and BCIP (FIG. 13b).
To determine whether mNgR or mNgR deletion mutants bound to hNogo-A (1055-1120), wtNgR or mNgR deletion mutants were transfected into COS-7 cells. Forty-eight hours after the transfection, the transfected COS-7 cells were washed with hanks balanced salt solution containing 20 mM sodium HEPES, pH 7.05, and 1 mg/ml bovine serum albumin (BSA) [hereinafter “HBH”]. Cells were then incubated for 2 hours at 23° C. with a conditioned medium enriched with purified AP-hNogo-A (1055-1120) diluted in HBH. AP-fusion protein was detected as previously described for AP-Sema3A (Takahashi et al., Nature Neurosci. 1:487-493, 1998).

[2] = test system: CNS myelin induced neurite outgrowth inhibition; assay: Blockade of CNS myelin induced neurite outgrowth inhibition in chick DRG neurons; type: cell-based
Method: To determine the antagonistic activity of Peptide 140 against CNS myelin, the above synthetic peptide was added approximately 10 min before application of CNS myelin. 30 min later, cultures were fixed and growth cone collapse was assessed following staining with rhodamine-phalloidin. For neurite outgrowth assays, plastic chamber slide were coated with 100 μg ml^−1 poly-L-lysine, washed, and dried. 3 μl drops of PBS containing CNS myelin were spotted and dried. Slides were then rinsed and coated with 10 μg ml fs24^−1 laminin before addition of dissociated E12 chick DRGs. Peptide 140, or the scrambled version of Peptide 140, was added at the time of cell plating. Cultures were grown for 5-7 h after which neurite outgrowth was assessed.
Although the role of the GPI anchor may be to regulate NgR cellular compartmentalization, another possible role for the GPI linkage is to provide a NgR cleavage site. Cleaving NgR could serve to affect hNogo-A (1055-1120) signaling by rendering a neuron insensitive to hNogo-A (1055-1120) and by releasing soluble NgR that could then act on adjacent cells to modulate hNogo-A (1055-1120) signaling. To determine if soluble mNgR modulates hNogo-A (1055-1120)-dependent inhibition, a soluble mNgR was generated by inserting a truncated cDNA encoding mNgR residues 1-348 in frame with a myc-His carboxy tag into pcDNA3.1. The resulting plasmid expressing mNgREcto was transfected into HEK293T cells, and conditioned media containing mNgREcto protein was collected. To test the effect of mNgREcto on Nogo signaling, E13 dissociated DRGs were plated in the presence of hNogo-A (1055-1120) or myelin. The inhibitors were presented in either soluble or substrate-bound forms. For neurite outgrowth assays on hNogo-A (1055-1120) or myelin substrates, Permanox chamber slides were coated with 100μ, fs24 g ml^−1 poly-L-Lysine, washed, and then 3-μl drops of phosphate-buffered saline (hereinafter “PBS”) containing 0, 10, 50, or 150 ng of GST-hNogo-A (1055-1120) or myelin were spotted and dried. GST-hNogo-A (1055-1120) and myelin were prepared as previously described (GrandPre et al., supra; Fournier et al., J. Cell Biol. 149:411-421, 2000). After three PBS washes, slides were coated with 10 μg ml^−1 laminin. Laminin was then aspirated and dissociated E13 chick DRG neurons were added. After 6-8 hr of outgrowth, cultures were fixed and neurite outgrowth lengths were assessed. For blockade experiments with NgREcto, spots were incubated with HEK293T cell conditioned media or NgREcto-transfected-HEK293T cell conditioned media following for 1 hr following the laminin coating step and before the addition of dissociated neurons. […] Thus, soluble fragments of NgR might serve physiologically or pharmacologically to reduce GST-hNogo-A (1055-1120) inhibition of axonal regeneration.

[3] = test system: GST-Nogo-66 inhibition of neurite outgrowth; assay: Blockade of Nogo-induced inhibition of neurite outgrowth in chick DRG neurons; type: cell-based
Method: as §1
Peptide 140 was tested for its ability to neutralize neurite outgrowth inhibition caused by the addition of GST fused to residues #1055-1120 of hNogoA (designated Nogo-66 in FIG. 16e). Plastic chamber slides were coated with 100 μg ml^−1 poly-L-lysine, washed, and dried. 3 μl drops of PBS containing GST-hNogoA(residues #1055-1120) were spotted and dried. Slides were then rinsed and coated with 10 μg ml fs24^−1 laminin before addition of dissociated E12 chick DRGs. Peptide 140 was added at the time of cell plating. Cultures were grown for 5-7 h after which neurite outgrowth was assessed.
Although the role of the GPI anchor may be to regulate NgR cellular compartmentalization, another possible role for the GPI linkage is to provide a NgR cleavage site. Cleaving NgR could serve to affect hNogo-A (1055-1120) signaling by rendering a neuron insensitive to hNogo-A (1055-1120) and by releasing soluble NgR that could then act on adjacent cells to modulate hNogo-A (1055-1120) signaling. To determine if soluble mNgR modulates hNogo-A (1055-1120)-dependent inhibition, a soluble mNgR was generated by inserting a truncated cDNA encoding mNgR residues 1-348 in frame with a myc-His carboxy tag into pcDNA3.1. The resulting plasmid expressing mNgREcto was transfected into HEK293T cells, and conditioned media containing mNgREcto protein was collected. To test the effect of mNgREcto on Nogo signaling, E13 dissociated DRGs were plated in the presence of hNogo-A (1055-1120) or myelin. The inhibitors were presented in either soluble or substrate-bound forms. For neurite outgrowth assays on hNogo-A (1055-1120) or myelin substrates, Permanox chamber slides were coated with 100μ, fs24 g ml^−1 poly-L-Lysine, washed, and then 3-μl drops of phosphate-buffered saline (hereinafter “PBS”) containing 0, 10, 50, or 150 ng of GST-hNogo-A (1055-1120) or myelin were spotted and dried. GST-hNogo-A (1055-1120) and myelin were prepared as previously described (GrandPre et al., supra; Fournier et al., J. Cell Biol. 149:411-421, 2000). After three PBS washes, slides were coated with 10 μg ml^−1 laminin. […]

Substance | blockade of Nogo-induced growth cone collapse (in words) [1] | binding to NgR expressing COS-7 cells (in words) (mouse NgR) | further results
1-25: 25 amino acid peptide, residues 1-25 of the extracellular domain of Nogo (FRIYKGVIQAIQKSDEGHPFRAYLE) [Peptide 1-25] | blocking activity at μM concentrations | – | –
1-30: peptides having residues 1-30 of hNogoA (#1055-1120) (RIYKGVIQAIQKSDEGHPFRAYLESEVAIS; UniProt Q9NQC3 1055-1084, looked up, fragment) [Peptide 1-30] | – | almost no binding | –
1-31: peptides having residues 1-31 of hNogoA (#1055-1120) (RIYKGVIQAIQKSDEGHPFRAYLESEVAISE; UniProt Q9NQC3 1055-1085, looked up, fragment) [Peptide 1-31] | – | almost no binding | –
1-33: peptides having residues 1-33 of hNogoA (#1055-1120) (RIYKGVIQAIQKSDEGHPFRAYLESEVAISEEL; UniProt Q9NQC3 1055-1087, looked up, fragment) [Peptide 1-33] | – | – | binding to mNgR, less compared to the strong binders (mouse NgR; data not shown): approximately 50%
1-34: peptides having residues 1-34 of hNogoA (#1055-1120) (RIYKGVIQAIQKSDEGHPFRAYLESEVAISEELV; UniProt Q9NQC3 1055-1088, looked up, fragment) [Peptide 1-34] | – | bind strongly and almost equivalently | –
2-40: peptides having residues 2-40 of the hNogoA (#1055-1120) (IYKGVIQAIQKSDEGHPFRAYLESEVAISEELVQKYSNS; UniProt Q9NQC3 1056-1094, looked up, fragment) [Peptide 2-40] | – | bound mNgR well | –
10-40: peptides having residues 10-40 of hNogoA (#1055-1120) (IQKSDEGHPFRAYLESEVAISEELVQKYSNS) [Peptide 10-40] | – | no binding | –
11-35: 25 amino acid peptide, residues 11-35 of the extracellular domain of Nogo (IQKSDEGHPFRAYLESEVAISEELV) [Peptide 11-35] | blocking activity at μM concentrations | – | –
21-45: 25 amino acid peptide, residues 21-45 of the extracellular domain of Nogo (RAYLESEVAISEELVQKYSNSALGH) [Peptide 21-45] | blocking activity at μM concentrations | – | –
acetyl-SYVKEYAPIFAGKSRGEIKYQSIEIHEAQVRSDELVQSLN-amide (Ac-SYVKEYAPIFAGKSRGEIKYQSIEIHEAQVRSDELVQSLN-NH2) [scrambled version of Peptide 140, reference compound] | – | – | blockade of CNS myelin induced neurite outgrowth inhibition (in words) [2]: ineffective; blockade of Nogo-induced neurite outgrowth inhibition (in words) [3]: does not result in blockade of outgrowth inhibition
